Measurements as given in IntAct's records for PubMed 27820671.

B1: LIM/homeobox protein Lhx4 (Homo sapiens), Q969G2 (parent)
chain: MMQSATVPAEGAVKGLPEMLGVPMQQIPQCAGCNQHILDKFILKVLDRHWHSSCLKCADCQMQLADRCFSRAGSVYCKEDFFKRFGTKCTACQQGIPPTQVVRKAQDFVYHLHCFACIICNRQLATGDEFYLMEDGRLVCKEDYETAKQNDDSEAGAKRPRTTITAKQLETLKNAYKNSPKPARHVREQLSSETGLDMRVVQVWFQNRRAKEKRLKKDAGRHRWGQFYKSVKRSRGSSKQEKESSAEDCGVSDSELSFREDQILSELGHTNRIYGNVGDVTGGQLMNGSFSMDGTGQSYQDLRDGSPYGIPQSPSSISSLPSHAPLLNGLDYTVDSNLGIIAHAGQGVSQTLRAMAGGPTSDISTGSSVGYPDFPTSPGSWLDEMDHPPF
partner: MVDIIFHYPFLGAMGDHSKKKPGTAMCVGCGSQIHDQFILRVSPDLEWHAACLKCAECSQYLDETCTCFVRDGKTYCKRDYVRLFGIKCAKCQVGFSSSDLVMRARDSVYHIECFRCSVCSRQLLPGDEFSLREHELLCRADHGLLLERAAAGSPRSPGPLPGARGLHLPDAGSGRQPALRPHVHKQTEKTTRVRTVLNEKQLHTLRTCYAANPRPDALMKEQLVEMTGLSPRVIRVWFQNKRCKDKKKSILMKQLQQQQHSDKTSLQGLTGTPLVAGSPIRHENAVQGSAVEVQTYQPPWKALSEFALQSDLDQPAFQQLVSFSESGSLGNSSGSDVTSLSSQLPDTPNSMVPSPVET
B2: LIM/homeobox protein Lhx4 (Homo sapiens), Q969G2 (parent)
chain: B1 chain
partner: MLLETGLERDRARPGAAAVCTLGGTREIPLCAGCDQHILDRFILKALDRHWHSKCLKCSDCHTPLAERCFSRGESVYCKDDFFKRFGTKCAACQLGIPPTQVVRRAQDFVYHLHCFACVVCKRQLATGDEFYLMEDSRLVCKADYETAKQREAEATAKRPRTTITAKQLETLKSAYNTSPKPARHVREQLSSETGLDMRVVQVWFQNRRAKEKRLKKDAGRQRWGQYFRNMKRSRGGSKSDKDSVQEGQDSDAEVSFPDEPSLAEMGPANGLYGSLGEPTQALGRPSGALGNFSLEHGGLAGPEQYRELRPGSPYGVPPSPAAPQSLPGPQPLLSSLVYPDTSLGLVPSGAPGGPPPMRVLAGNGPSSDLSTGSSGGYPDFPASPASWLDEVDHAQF

Variants of: B1
Conditions: with isl2_human ISL2, Q96A47

Variant | effect of a mutation on the interaction
C57A;C60A | decreasing interaction strength
A65V | with no effect

Variants of: B2
Conditions: with lhx3_human LHX3, Q9UBR4

Variant | effect of a mutation on the interaction
C57A;C60A | decreasing interaction strength
A65V | with no effect
